Earlier results, collected in PMC2683804.

Assays:
[1] = molecular target: amyloid-β 1-42 1-42 (Homo sapiens) (UniProt P05067)
[2] = molecular target: amyloid-β 1-40 1-40 (Homo sapiens) (UniProt P05067)

- Kd [1]: 10.5 µM
- Kd [2]: 9.25 µM
Substance: human serum albumin (from UniProt P02768)
